Data set [1] addresses enzymatically deglycosylated soluble extracellular domain of human DPP-IV (sDPP-IVdeglycos).
In data set [2] the target is enzymatically deglycosylated soluble extracellular domain of human dipeptidyl peptidase IV (sDPP-IVdeglycos; residues 31-766).

1 protein from patent US20070100561 can be followed below.

Sequence of enzymatically deglycosylated soluble extracellular domain of human DPP-IV (sDPP-IVdeglycos) (chain, as listed by the source): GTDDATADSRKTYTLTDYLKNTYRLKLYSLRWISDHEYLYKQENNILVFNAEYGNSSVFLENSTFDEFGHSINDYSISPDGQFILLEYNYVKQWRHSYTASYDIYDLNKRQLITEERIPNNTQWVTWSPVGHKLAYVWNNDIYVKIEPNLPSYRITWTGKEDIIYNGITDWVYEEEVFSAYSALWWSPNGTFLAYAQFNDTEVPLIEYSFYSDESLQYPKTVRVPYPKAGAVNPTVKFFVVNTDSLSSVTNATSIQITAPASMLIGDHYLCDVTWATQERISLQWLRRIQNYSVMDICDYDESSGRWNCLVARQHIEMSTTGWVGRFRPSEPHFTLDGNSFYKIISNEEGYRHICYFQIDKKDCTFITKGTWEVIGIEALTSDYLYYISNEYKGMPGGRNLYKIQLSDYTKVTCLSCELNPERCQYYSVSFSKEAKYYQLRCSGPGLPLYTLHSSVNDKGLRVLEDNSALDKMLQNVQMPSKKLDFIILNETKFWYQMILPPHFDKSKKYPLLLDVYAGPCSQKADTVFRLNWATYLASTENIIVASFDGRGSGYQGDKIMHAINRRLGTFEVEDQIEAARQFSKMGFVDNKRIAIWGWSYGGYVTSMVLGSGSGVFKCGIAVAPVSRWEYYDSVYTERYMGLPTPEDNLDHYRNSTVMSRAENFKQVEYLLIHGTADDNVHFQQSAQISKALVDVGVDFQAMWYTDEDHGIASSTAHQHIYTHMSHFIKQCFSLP
Sequence of enzymatically deglycosylated soluble extracellular domain of human dipeptidyl peptidase IV (sDPP-IVdeglycos; residues 31-766) (chain, as listed by the source): as above

B1: adenosine deaminase (ADA; Sigma Type IV, from calf intestinal mucosa) (protein)
chain: AQTPAFNKPKVELHVHLDGAIKPETILYYGRKRGIALPADTPEELQNIIGMDKPLSLPEFLAKFDYYMPAIAGCREAVKRIAYEFVEMKAKDGVVYVEVRYSPHLLANSKVEPIPWNQAEGDLTPDEVVSLVNQGLQEGERDFGVKVRSILCCMRHQPSWSSEVVELCKKYREQTVVAIDLAGDETIEGSSLFPGHVKAYAEAVKSGVHRTVHAGEVGSANVVKEAVDTLKTERLGHGYHTLEDATLYNRLRQENMHFEVCPWSSYLTGAWKPDTEHPVVRFKNDQVNYSLNTDDPLIFKSTLDTDYQMTKNEMGFTEEEFKRLNINAAKSSFLPEDEKKELLDLLYKAYGMPSPA
Regarding B1, in data set [1], the KM (enzyme activity of DPP-IV in the complex with ADA) came out at 14.8 µM, the kcat (enzyme activity of DPP-IV in the complex with ADA) was found to be 39.6 s⁻¹ and the kcat/KM (enzyme activity of DPP-IV in the complex with ADA) was found to be 2.68e+06 M⁻¹ s⁻¹. In data set [2], the DPP-IV activity result is given as “confirming the independence of DPP-IV activity on ADA binding”.
